Laboratory results from US6623741B1, “Methods and compositions for inhibition of membrane fusion-associated events including RSV transmission” (Trimeris, Inc., priority 2000, dated 2003).
pIC50: −log10 of the molar value.

Tests used:
[1] = tested on: HIV-1 (HIV-1LAI, HIV-1MN, HIV-1RF, HIV-1SF2); type: cell-based; settings: lowest concentration tested, FIG. 4B
Method: Approximately 7×10^4 Molt cells were incubated with 1×10^4 CEM cells chronically infected with the HIV-1LAI virus in 96-well plates (one-half area cluster plates; Costar, Cambridge, Mass.) in a final volume of 100 μl culture medium as previously described (Matthews, T. J. et al., 1987, Proc. Natl. Acad. Sci. USA 84: 5424-5428). Peptide inhibitors were added in a volume of 10 μl and the cell mixtures were incubated for 24 hr. at 37° C. At that time, multinucleated giant cells were estimated by microscopic examination at a 40× magnification which allowed visualization of the entire well in a single field.
The initial screen for antiviral activity assayed peptides' ability to block syncytium formation induced by overnight co-cultivation of uninfected Molt 4 cells with chronically HIV-1 infected CEM cells. […] In the first of these experiments, serial DP178 (SEQ ID NO:15) peptide concentrations between 10 μg/ml and 12.5 ng/ml were tested for blockade of the cell fusion process. For these experiments, CEM cells chronically infected with either HIV-1LAI, HIV-1MN, HIV-1RF, or HIV-1SF2 virus were cocultivated overnight with uninfected Molt 4 cells.
The next series of experiments involved the preparation and testing of a DP178 (SEQ ID NO:15) homolog for its ability to inhibit HIV-1-induced syncytia formation.
The next series of experiments involved a comparison of DP178 (SEQ ID NO:15) HIV-1 and HIV-2 inhibitory activity.

[2] = Circular dichroism spectroscopy (helicity, thermal stability); type: physicochemical
Method: Circular Dichroism Spectroscopy:
Circular Dichroism (CD) spectra were obtained using an AVIV Associates 62DS spectrometer equipped with a thermoelectric temperature controller. Spectra were obtained in 0.1, 0.5 and 1.0 cm quartz cells at 1° C. with 0.5 nm steps from 200 to 260 nm, 1.5 nm bandwidth and an averaging time of 4 sec/step. After the cell/buffer blank was subtracted, spectra were smoothed using a third-order least-squares polynomial fit with a conservative (5-10 point) window size to give random residuals. Mixing experiments were performed by comparing the spectrum of the two peptides mixed together in a 0.1 cm path length cell at the desired concentrations (referred to herein as the “experimental” spectrum) to the sum of the individual spectra of the peptides, each solution in a 0.1 cm path length cell (referred to herein as the “model spectrum” for no peptide interaction or “model for no interaction”).
Raw ellipticity values were converted to mean residue ellipticity using standard methods (Cantor & Schimmel, 1980, Biophysical Chemistry Part II: Techniques for the Study of Biological Structure and Function, W.H. Freeman and Co., New York). Conversions for the mixing experiment spectra were performed using a peptide length corresponding to the average of the two peptides. Thermal stability measurements were performed in 2° C. steps, with 1 minute equilibration times. Spectra were smoothed, converted to mean residue ellipticity, and the corresponding value at 222 nm noted from each spectrum. Percent helicity values were calculated using single value decomposition with a basis set of 33 protein spectra (Johnson & Curtis, 1990, Proteins: Structure, Function and Genetics 7:205-214).

[3] = Analytical ultracentrifugation (sedimentation equilibrium); type: physicochemical
Method: Analytical Ultracentrifugation:
Sedimentation equilibrium experiments were performed on a Beckman Optima XL-A analytical ultracentrifuge at 4° C. Six-channel cells (12 mm optical path length) were used with an An-60 Ti rotor operated at 13,500, 16,000, 17,000, 20,000, 21,000, 24,000, 25,000, 27,500, 30,000 and 35,000 rpm. The cell radii were scanned using 0.001 cm steps with 10 averages/scan. Data were analyzed using Beckman XLA data analysis software (version 3.01 for Windows) and Beckman-Origin software (version 3.78 for Windows). […] The partial specific volumes were held constant for all models considered.
Single data files were normalized to 270 nm absorbance values using Beer's Law. The data obtained with solutions containing the DP107-like peptides were then analyzed using a single ideal species model to determine a weight-averaged molecular weight (Mw). Diagnostic plots of Mw/Mw0 vs. rpm/rpm0 and Mw vs. radial concentration were used to test for sample homogeneity as described, e.g., by McRorie & Voelker, 1993, Self-Associating Systems in the Analytical Ultracentrifuge, Beckman Instruments, Inc., Palo Alto; and Yphantis et al., 1978, in Physical Aspects of Protein Interactions: Proceedings of the Symposium on Protein Interactions, American Chemical Society Meeting, Catsimpoolas, Ed., pp. 275-303, Elsevier, Miami Beach, Fla. When systematic residuals or a Mw higher than the monomer molecular weight indicated the presence of self-association, associative models such as monomer/trimer, monomer/tetramer and monomer/dimer/tetrarner were investigated. The suitability of a particular model (i.e., the goodness of fit) was judged by the trends observed in the residuals (Johnson & Straume, 1994, in Modern Analytical Ultracentrifugation, Schuster et al., eds., pp. 37-65, Birkhauser, Boston). Using the associative model which produced random residuals when fitting individual data files, a simultaneous, global, weighted fit of multiple data files (up to nine files with different concentrations and speeds) was performed to determine the association constant and 95% confidence intervals. To convert the resulting association constant from absorbance units to concentration units, it was assumed that the absorbance of the n-mer is n times that of the monomer.
The data obtained with DP107-like/DP178-like peptide mixtures were first analyzed with a single ideal species model. When a systematic trend in residuals coupled with the Mw not equal to a precise multimer of HR1+HR2 were obtained, and alternate fitting scheme was explored. For this approach, it was assumed that the solution contained fully associated HR1-HR2 complexes and unassociated DP107-like and DP178-like peptides. The mixtures were analyzed with a two-ideal species model, choosing one species to have a molecular weight of either 28,269 Da (corresponding to three DP107-like plus three DP178-like peptides) or […] (corresponding to four DP107-like plus four DP178-like peptides).

[4] = tested on: M41Δ178 fusion protein; assay: T83 ELARA (Biot-T20) IC50 Conc. (nM)
From the text: Table printed on a drawing sheet, FIG.24A
Head of the field: T83 ELARA (Biot-T20) IC50 Conc. (nM)
The patent's description of the figure: FIGS. 24A-B: Circular dichroism, cell fusion and competitive inhibition data for alanine walk experiments for the peptide T20, which is also known as DP178.
First copying reader's note: The table breaks off at the bottom of the sheet and continues on FIG. 24B; substituted alanine residues are printed in bold, and the T1342 FP column is empty on this sheet.

[5] = tested on: RSV

Row | Substance | %-Helicity ([2]; 35 μM peptide, PBS pH 7) [%] | Tm (midpoint of melting transition) ([2]; 35 μM peptide, PBS pH 7) [°C] | pIC50 [4] | IC50 [5] [µg/mL] | N-mer (weight-averaged molecular weight divided by monomer molecular weight) ([3]; 35 μM) | further results
1 | YTNTIYTLLEESQNQQEKNEQELLELDKWASLWNWF [DP-185] |  |  |  |  |  | concentration exhibiting inhibitory activity on HIV-1-induced syncytia formation [1]: ≤ 312.5 ng/mL
2 | AVSKVLHLEGEVNKIKSALLSTNKAVVSLSNGVSVLTSKVLDLKNYIDKQ (Ac-AVSKVLHLEGEVNKIKSALLSTNKAVVSLSNGVSVLTSKVLDLKNYIDKQ-NH2) [Peptide T1772, RSV DP107-like peptide, residues 153-202 of the RSV F-protein] | 83 | 42 |  |  |  | %-Helicity ([2]; 1 μM T1772): 67%; Tm ([2]; 1 μM T1772): 30 °C; %-Helicity ([2]; 10 μM T1772): 80%; Tm ([2]; 10 μM T1772): 32 °C; %-Helicity ([2]; 50 μM T1772): 84%; Tm ([2]; 50 μM T1772): 42 °C; %-Helicity ([2]; 100 μM T1772): 90%; Tm ([2]; 100 μM T1772): 46 °C; oligomerization state in solution (in words) [3]: trimeric self-association; N-mer (weight-averaged molecular weight divided by monomer molecular weight) ([3]; 25 μM determination): 2.4; Mw, single ideal species model, single data set ([3]; 100 μM, 24,000 rpm): 12,925 Da; average Mw relative to the monomer molecular weight ([3]; average over concentrations): 2.4 times
3 | Ac-YTSLIHSLIEESQNQQEKNEQELLELDKWAAAANWF-NH2 [T869] |  |  | 7.24 |  |  | 
4 | Ac-VLHLEGEVNKIKSALLSTNKAVVSLSNGVSVLTSKVLDLKNYIDKQ-NH2 (N-terminus and C-terminus assumed) [Peptide T1581] | 69 | 31 |  | 3.36 | 1.8 | 
5 | Ac-SKVLHLEGEVNKIKSALLSTNKAVVSLSNGVSVLTSKVLDLKNYIDKQ-NH2 [Peptide T1583] |  |  |  | 1.09 |  | 
6 | Ac-AVSKVLHLEGEVNKIKSALLSTNKAVVSLSNGVSVLTSKVLDLKNYIDKQL-NH2 (N-terminus and C-terminus assumed) [Peptide T1584] | 90 | 53 |  | 0.23 | 2.1 | 
7 | Ac-YTSLIHSLIEESQNQQEKNEQAAAELDKWASLWNWF-NH2 [T872] |  |  | 7.18 |  |  | 
8 | T1582: RSV HR1 (DP107-like) peptide of FIG. 28, shorter than T1581 (Ac-VLHLEGEVNKIKSALLSTNKAVVSLSNGVSVLTSKVLDLKNYIDK-NH2) [Peptide T1582] | 49 | 22 |  |  | 1.5 | 
9 | T876: T20 with three consecutive residues changed to three alanine residues (YTSLIHSLIAAAQNQQEKNEQELLELDKWASLWNWF) [Peptide T876] |  |  | 7.54 |  |  | 
10 | T1590: RSV HR1 (DP107-like) peptide of FIG. 28, shorter than T1581 (Ac-VLHLEGEVNKIKSALLSTNKAVVSLSNGVSVLTSKVLDLKNYI-NH2) [Peptide T1590] | 10 | <10 |  |  |  | 
11 | Ac-SGVAVSKVLHLEGEVNKIKSALLSTNKAVVSLSNGVSVLTSKVLDLKNYIDKQL-NH2 (N-terminus and C-terminus assumed) [Peptide T1623] | 88 | 55 |  | 0.80 | 2.2 | 
12 | T871: T20 with three consecutive residues changed to three alanine residues (YTSLIHSLIEESQNQQEKNEQELLAAAKWASLWNWF) [Peptide T871] |  |  | 5.94 |  |  | 
